Target: Hfq (His6-Hfq) (Histophilus somni strain 2336) (UniProt B0UTF5)
Assay: EMSA
Details: 10 mM Tris-HCl pH 7.4, 6% glycerol, 50 ug/ml BSA, 0.75 ug baker's yeast tRNA, 200 ng sRNA, 15 ul, room temperature 30 min; 6% native PAGE, 0.5x TBE, GelGreen …

Chain of Hfq (His6-Hfq) (Histophilus somni strain 2336) (B0UTF5 whole entry): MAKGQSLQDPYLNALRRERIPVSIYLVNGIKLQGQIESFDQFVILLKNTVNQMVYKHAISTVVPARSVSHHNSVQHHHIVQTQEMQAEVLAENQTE

## GGGAAUAAUACUGAAUAAUAGCUAUAUUACGACAAAGGGCGUAAGCUGCCACAAGUGCUACUUAAUCGGGCGUAAGCUGCCAUAAGUGCUACUUAAUUAGGUGCAAGCUACCGUAAGUGCUGAAGAAAAGAUGCCUAACGGCAUCUUUUUUUUGCU [HS9 sRNA]
  binding: binds

## GGGCGCUGGCAGGCUAAUGACUAAUAAGAUGAUAACUAGGAUAAUGUAUUUAAACAUUGUGUUAUCCUCUUCAAAGUUGGGUGGAUUGAAGGUCGCACCCAGCUCGUUUCCGCAGUAUUGCGAAAACAAGAAUAUUAUAGGUCGUUUUAUAUUUCUGGUCAAGGAAUAAAACGACCUAUUUUUUAUUUGAC [HS97 sRNA]
  binding: binds
